Source: US20110294738A1, “PTHR1 RECEPTOR COMPOUNDS” (priority 2008, published 2011)
Like-named read-outs stand apart in the source and are kept apart here. One block for each molecule: values may come before it. Peptide text beside a SMILES is read from it. * marks the point of attachment. Palmitoyl = CCCCCCCCCCCCCCCC(=O)*

Experiments:
PTHR1 [1] = molecular target: T1, PTHR1 (Rattus norvegicus, UniProt P25961); test: cAMP screening assay using DiscoveRX XS+ kit (PTH1-34 dose-response in UMR-106 cells); conditions: compound 10 μM; for Inhibition of Maximal Response: PTH1-34 stimulated maximal response, 1−(Emax compound/Emax vehicle); for Fold Shift of EC50: PTH1-34 EC50 compound/EC50 vehicle
T1 sequence (P25961 27-591): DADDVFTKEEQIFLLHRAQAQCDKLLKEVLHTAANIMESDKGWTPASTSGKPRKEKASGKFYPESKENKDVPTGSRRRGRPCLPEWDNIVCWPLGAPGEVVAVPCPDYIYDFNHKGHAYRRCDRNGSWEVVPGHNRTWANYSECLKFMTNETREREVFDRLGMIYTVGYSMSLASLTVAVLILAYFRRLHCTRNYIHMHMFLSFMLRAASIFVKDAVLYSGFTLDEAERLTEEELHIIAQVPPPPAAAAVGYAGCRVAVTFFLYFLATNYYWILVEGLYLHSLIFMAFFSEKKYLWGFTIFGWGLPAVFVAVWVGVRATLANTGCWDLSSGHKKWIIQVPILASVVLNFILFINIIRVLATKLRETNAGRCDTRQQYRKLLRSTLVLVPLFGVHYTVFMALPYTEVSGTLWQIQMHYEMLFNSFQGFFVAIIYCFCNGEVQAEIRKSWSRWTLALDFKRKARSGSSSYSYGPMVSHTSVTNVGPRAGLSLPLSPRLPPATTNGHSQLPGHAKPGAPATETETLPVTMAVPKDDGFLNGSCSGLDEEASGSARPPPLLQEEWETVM
Procedure: (§1) cAMP Screening Assay Using DiscoveRX XS+ Kit
(§2) UMR-106 cells were seeded in 96-well white plates at 10K cells/well in growth media. Twenty four hours after seeding, cell media was removed by gentle dumping and replaced with 30 μL of compounds diluted to 10 μM final concentration in assay buffer (Hank's balanced Salt Solution, 20 mM HEPES, pH 7.4, 0.1 μM IBMX). After 30 minute incubation at room temperature, 10 μL human PTH1-34 serial diluted in assay buffer was added. Cells were incubated at 37° C. for 15 minutes before 10 μL of water soluble analog of forskolin, NKH477 was added to final concentration of 10 μM followed by 60 minute incubation at room temperature. DiscoveRX cAMP XS+ kit reagents were then added following manufacture protocol. Briefly, 10 μL of antibody was added to each well followed by 40 μL of ED/Lysis buffer mix (1/5/19 for Galacon-star/Emerald/Lysis buffer and then 1:1 with ED). After 1 hour incubation, 40 μL of EA reagent was added followed by at least 1 hour incubation before the plates were read on TopCount reader. Data was analyzed using GraphPad Prism. PTH1-34 dose-response curves were fitted using non-linear curve fit (Y=Bottom+(Top−Bottom)/(1+10̂((Log EC50−X)*HillSlope))). PTH1-34 EC50 values calculated in the presence of compounds were compared to that in the presence of vehicle control. The ratio of the EC50 values were calculated and presented as fold shift (EC50 compound/EC50 vehicle). The effect of compounds on PTH1-34 stimulated maximal response was also assessed and was presented percent inhibition (1−(Emax compound/Emax vehicle)).

PTHR1 [2] = molecular target: T1, PTHR1
Procedure: as §1, §2

Sequence of PTHR1 receptor (P25961 whole entry): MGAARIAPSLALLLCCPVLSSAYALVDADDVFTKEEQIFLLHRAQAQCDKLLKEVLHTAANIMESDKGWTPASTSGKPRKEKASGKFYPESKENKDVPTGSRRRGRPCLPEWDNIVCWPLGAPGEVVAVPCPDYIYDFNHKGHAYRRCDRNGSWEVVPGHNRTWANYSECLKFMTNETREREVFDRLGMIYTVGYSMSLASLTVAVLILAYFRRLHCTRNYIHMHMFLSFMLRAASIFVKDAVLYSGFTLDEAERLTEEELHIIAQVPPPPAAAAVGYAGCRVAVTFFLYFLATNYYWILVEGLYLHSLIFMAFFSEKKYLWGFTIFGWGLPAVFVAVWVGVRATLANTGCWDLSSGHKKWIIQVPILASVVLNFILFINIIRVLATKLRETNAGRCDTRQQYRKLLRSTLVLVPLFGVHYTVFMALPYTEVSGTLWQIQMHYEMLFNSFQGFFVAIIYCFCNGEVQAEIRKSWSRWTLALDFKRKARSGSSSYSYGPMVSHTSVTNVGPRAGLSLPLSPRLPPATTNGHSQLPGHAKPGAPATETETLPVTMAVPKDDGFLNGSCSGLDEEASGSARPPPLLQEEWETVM

Molecule: RQQYRKLLKSTL [Compound 57]
Inhibition of Maximal Response (PTHR1 [1]): −38.80%
Fold Shift of EC50 (PTHR1 [2]): 15.6

Molecule: RETNAGRSDTRQ [Compound 63]
Inhibition of Maximal Response (PTHR1 [1]): 1.20%
Fold Shift of EC50 (PTHR1 [2]): 1.1

Molecule: NGEVQAEIKKSWSRWT [Compound 101]
Inhibition of Maximal Response (PTHR1 [1]): 25.30%
Fold Shift of EC50 (PTHR1 [2]): 1.2

Molecule: LYLHSLIFMSFFSEKK [Compound 40]
Fold Shift of EC50 (PTHR1 [1]): 1.5
Inhibition of Maximal Response (PTHR1 [1]): 28.30%

Molecule: TNAGRADTRQQYRKLL [Compound 77]
Inhibition of Maximal Response (PTHR1 [1]): 9.90%
Fold Shift of EC50 (PTHR1 [2]): 6.9

Molecule: Pal-GSEKKYLWGFTVF-amide (Palmitoyl-GSEKKYLWGFTVF-NH2; SMILES CCCCCCCCCCCCCCCC(=O)NCC(=O)N[C@@H](CO)C(=O)N[C@@H](CCC(=O)O)C(=O)N[C@@H](CCCCN)C(=O)N[C@@H](CCCCN)C(=O)N[C@@H](Cc1ccc(O)cc1)C(=O)N[C@@H](CC(C)C)C(=O)N[C@@H](Cc1c[nH]c2ccccc12)C(=O)NCC(=O)N[C@@H](Cc1ccccc1)C(=O)N[C@H](C(=O)N[C@H](C(=O)N[C@@H](Cc1ccccc1)C(N)=O)C(C)C)[C@@H](C)O) [Compound 41]
Inhibition of Maximal Response (PTHR1 [1]): 17.70%
Fold Shift of EC50 (PTHR1 [2]): 0.9

Molecule: TNAGRSDTRQQYRKLA [Compound 88]
Inhibition of Maximal Response (PTHR1 [1]): −25.00%
Fold Shift of EC50 (PTHR1 [2]): 2.8

Molecule: LYLHSLIFMAFFSEKKYLWGFT [Compound 34]
Fold Shift of EC50 (PTHR1 [1]): 1.2
Inhibition of Maximal Response (PTHR1 [1]): 4.20%

Molecule: TNAGRSDTRQQYRKLLFS [Compound 85]
Fold Shift of EC50 (PTHR1 [1]): 6.9
Inhibition of Maximal Response (PTHR1 [1]): 19.50%

Molecule: TNAGRSDTRQAYRKLL [Compound 93]
Fold Shift of EC50 (PTHR1 [1]): 13.4
Inhibition of Maximal Response (PTHR1 [1]): −67.00%

Molecule: GSYFRRLHSTRNYIH [Compound 11]
Fold Shift of EC50 (PTHR1 [1]): 1.1
Inhibition of Maximal Response (PTHR1 [1]): 19.80%

Molecule: TNAGRSDTRQQYRKLL [Compound 68]
Fold Shift of EC50 (PTHR1 [2]): 12.36

Molecule: TNAGRSDTRAQYRKLL [Compound 81]
Fold Shift of EC50 (PTHR1 [1]): 13.8
Inhibition of Maximal Response (PTHR1 [1]): −20.80%

Molecule: RRLHSTRNYIH [Compound 2]
Fold Shift of EC50 (PTHR1 [1]): 1.9
Inhibition of Maximal Response (PTHR1 [1]): −24.90%

Molecule: AGRSDTRQQYRKLLKS [Compound 65]
Fold Shift of EC50 (PTHR1 [2]): 14.65

Molecule: RRLHSTRNYIHMHL [Compound 16]
Fold Shift of EC50 (PTHR1 [2]): 2.45

Molecule: RETNAGRSDTRQQYRKLLFS [Compound 58]
Fold Shift of EC50 (PTHR1 [2]): 17.74

Molecule: Pal-TNAGRSATRQQYRKLL-amide (Palmitoyl-TNAGRSATRQQYRKLL-NH2; SMILES CCCCCCCCCCCCCCCC(=O)N[C@H](C(=O)N[C@@H](CC(N)=O)C(=O)N[C@@H](C)C(=O)NCC(=O)N[C@@H](CCCNC(=N)N)C(=O)N[C@@H](CO)C(=O)N[C@@H](C)C(=O)N[C@H](C(=O)N[C@@H](CCCNC(=N)N)C(=O)N[C@@H](CCC(N)=O)C(=O)N[C@@H](CCC(N)=O)C(=O)N[C@@H](Cc1ccc(O)cc1)C(=O)N[C@@H](CCCNC(=N)N)C(=O)N[C@@H](CCCCN)C(=O)N[C@@H](CC(C)C)C(=O)N[C@@H](CC(C)C)C(N)=O)[C@@H](C)O)[C@@H](C)O) [Compound 82]
Fold Shift of EC50 (PTHR1 [1]): 23.4
Inhibition of Maximal Response (PTHR1 [1]): −21.60%

Molecule: LAYFRRLHSTRNY [Compound 3]
Fold Shift of EC50 (PTHR1 [1]): 0.7
Inhibition of Maximal Response (PTHR1 [1]): −51.40%

Molecule: CCCCCCCCCCCCCCCC(=O)N[C@@H](CC(N)=O)C(=O)NCC(=O)N[C@@H](CCC(=O)O)C(=O)N[C@H](C(=O)N[C@@H](CCC(N)=O)C(=O)N[C@@H](C)C(=O)N[C@@H](CCC(=O)O)C(=O)N[C@H](C(=O)N[C@@H](CCCCN)C(=O)N[C@@H](CCCCN)C(=O)N[C@@H](CO)C(=O)N[C@@H](Cc1c[nH]c2ccccc12)C(N)=O)[C@@H](C)CC)C(C)C [Compound 99] (Palmitoyl-NGEVQAEIKKSW-NH2)
Fold Shift of EC50 (PTHR1 [2]): 1

Molecule: TNAGRSDTRQQYRKAL [Compound 89]
Fold Shift of EC50 (PTHR1 [1]): 2.3
Inhibition of Maximal Response (PTHR1 [1]): −20.40%

Molecule: RETNAGRSDTRQQYRKLLKS [Compound 51]
Fold Shift of EC50 (PTHR1 [2]): 12.45

Molecule: TNAGRSDTRQQYAKLL [Compound 91]
Fold Shift of EC50 (PTHR1 [1]): 2
Inhibition of Maximal Response (PTHR1 [1]): 9.80%

B1: Compound 70 (peptide)
peptide: Palmitoyl-TNAGRSDTRQQYRF-NH2
SMILES: CCCCCCCCCCCCCCCC(=O)N[C@H](C(=O)N[C@@H](CC(N)=O)C(=O)N[C@@H](C)C(=O)NCC(=O)N[C@@H](CCCNC(=N)N)C(=O)N[C@@H](CO)C(=O)N[C@@H](CC(=O)O)C(=O)N[C@H](C(=O)N[C@@H](CCCNC(=N)N)C(=O)N[C@@H](CCC(N)=O)C(=O)N[C@@H](CCC(N)=O)C(=O)N[C@@H](Cc1ccc(O)cc1)C(=O)N[C@@H](CCCNC(=N)N)C(=O)N[C@@H](Cc1ccccc1)C(N)=O)[C@@H](C)O)[C@@H](C)O
Fold Shift of EC50 (PTHR1 receptor): 2 fold
Inhibition of Maximal Response (PTHR1 receptor): 15.1%

B2: Compound 69 (peptide)
peptide: Palmitoyl-TNAGRSDTRQQYRK-NH2
SMILES: CCCCCCCCCCCCCCCC(=O)N[C@H](C(=O)N[C@@H](CC(N)=O)C(=O)N[C@@H](C)C(=O)NCC(=O)N[C@@H](CCCNC(=N)N)C(=O)N[C@@H](CO)C(=O)N[C@@H](CC(=O)O)C(=O)N[C@H](C(=O)N[C@@H](CCCNC(=N)N)C(=O)N[C@@H](CCC(N)=O)C(=O)N[C@@H](CCC(N)=O)C(=O)N[C@@H](Cc1ccc(O)cc1)C(=O)N[C@@H](CCCNC(=N)N)C(=O)N[C@@H](CCCCN)C(N)=O)[C@@H](C)O)[C@@H](C)O
Fold Shift of EC50 (PTHR1 receptor): 5.2 fold
Inhibition of Maximal Response (PTHR1 receptor): 2.5%

B3: Compound 71 (peptide)
peptide: Palmitoyl-SGRVLATKLR-NH2
SMILES: CCCCCCCCCCCCCCCC(=O)N[C@@H](CO)C(=O)NCC(=O)N[C@@H](CCCNC(=N)N)C(=O)N[C@H](C(=O)N[C@@H](CC(C)C)C(=O)N[C@@H](C)C(=O)N[C@H](C(=O)N[C@@H](CCCCN)C(=O)N[C@@H](CC(C)C)C(=O)N[C@@H](CCCNC(=N)N)C(N)=O)[C@@H](C)O)C(C)C
Fold Shift of EC50 (PTHR1 receptor): 0.8 fold
Inhibition of Maximal Response (PTHR1 receptor): 13.5%

B5: Compound 67 (peptide)
peptide: Palmitoyl-DTRQQYRKLLKS-NH2
SMILES: CCCCCCCCCCCCCCCC(=O)N[C@@H](CC(=O)O)C(=O)N[C@H](C(=O)N[C@@H](CCCNC(=N)N)C(=O)N[C@@H](CCC(N)=O)C(=O)N[C@@H](CCC(N)=O)C(=O)N[C@@H](Cc1ccc(O)cc1)C(=O)N[C@@H](CCCNC(=N)N)C(=O)N[C@@H](CCCCN)C(=O)N[C@@H](CC(C)C)C(=O)N[C@@H](CC(C)C)C(=O)N[C@@H](CCCCN)C(=O)N[C@@H](CO)C(N)=O)[C@@H](C)O
Fold Shift of EC50 (PTHR1 receptor): 6 fold
Inhibition of Maximal Response (PTHR1 receptor): 6.9%

Continued, in another order:

Inhibition of Maximal Response (PTHR1 [1]): 9.10%
Molecule: VRVLATKLRETNAGRSDTR [Compound 45]
Fold Shift of EC50 (PTHR1 [2]): 1.4

Inhibition of Maximal Response (PTHR1 [1]): 35.60%
Molecule: LHSLIFMAFFSEKKYLWGFT [Compound 37]
Fold Shift of EC50 (PTHR1 [2]): 1.1

Inhibition of Maximal Response (PTHR1 [1]): −47.60%
Molecule: RETNAGRSDTRQQYRF [Compound 61]
Fold Shift of EC50 (PTHR1 [2]): 0.7

Inhibition of Maximal Response (PTHR1 [1]): 8.30%
Molecule: TNAGRSDTRQQARKLL [Compound 92]
Fold Shift of EC50 (PTHR1 [1]): 5

Inhibition of Maximal Response (PTHR1 [1]): 21.00%
Molecule: TNAGRSDTRQQYRALL [Compound 90]
Fold Shift of EC50 (PTHR1 [1]): 2

Inhibition of Maximal Response (PTHR1 [1]): −29.20%
Molecule: TNAGRSDTAQQYRKLL [Compound 78]
Fold Shift of EC50 (PTHR1 [1]): 12.7

Inhibition of Maximal Response (PTHR1 [1]): 0.80%
Molecule: TNAARSDTRQQYRKLL [Compound 80]
Fold Shift of EC50 (PTHR1 [1]): 2.3

Inhibition of Maximal Response (PTHR1 [1]): 1.20%
Molecule: TNAGRSDARQQYRKLL [Compound 79]
Fold Shift of EC50 (PTHR1 [1]): 7.2

Inhibition of Maximal Response (PTHR1 [1]): −5.70%
Molecule: AGRSDTRQQYRKLLFS [Compound 95]
Fold Shift of EC50 (PTHR1 [1]): 19

Inhibition of Maximal Response (PTHR1 [1]): 2.40%
Molecule: TNAGASDTRQQYRKLL [Compound 76]
Fold Shift of EC50 (PTHR1 [1]): 16.9

Fold Shift of EC50 (PTHR1 [2]): 1.2
Molecule: CCCCCCCCCCCCCCCC(=O)N[C@@H](Cc1c[nH]c2ccccc12)C(=O)N[C@H](C(=O)N[C@@H](CC(C)C)C(=O)N[C@@H](C)C(=O)N[C@@H](CC(C)C)C(=O)N[C@@H](CC(=O)O)C(=O)NC(Cc1ccccc1)C(=O)N[C@@H](CCCCN)C(=O)N[C@@H](CCCNC(=N)N)C(=O)N[C@@H](CCCCN)C(=O)N[C@@H](C)C(=O)N[C@@H](CCCNC(=N)N)C(N)=O)[C@@H](C)O (stereo partly shown) [Compound 103]

Inhibition of Maximal Response (PTHR1 [1]): 26.60%
Molecule: SSYFRRLHSTRNYIH [Compound 12]
Fold Shift of EC50 (PTHR1 [1]): 0.9

Fold Shift of EC50 (PTHR1 receptor): 12.4 fold
Inhibition of Maximal Response (PTHR1 receptor): -0.0684
B4: Compound 68 (peptide)
peptide: Palmitoyl-TNAGRSDTRQQYRKLL-NH2
SMILES: CCCCCCCCCCCCCCCC(=O)N[C@H](C(=O)N[C@@H](CC(N)=O)C(=O)N[C@@H](C)C(=O)NCC(=O)N[C@@H](CCCNC(=N)N)C(=O)N[C@@H](CO)C(=O)N[C@@H](CC(=O)O)C(=O)N[C@H](C(=O)N[C@@H](CCCNC(=N)N)C(=O)N[C@@H](CCC(N)=O)C(=O)N[C@@H](CCC(N)=O)C(=O)N[C@@H](Cc1ccc(O)cc1)C(=O)N[C@@H](CCCNC(=N)N)C(=O)N[C@@H](CCCCN)C(=O)N[C@@H](CC(C)C)C(=O)N[C@@H](CC(C)C)C(N)=O)[C@@H](C)O)[C@@H](C)O
